Each block holds one binder with its values, some of them ahead of it. Ends that are not written are not given here.
Biological target: NCAM on rat hippocampal neurons (rat, UniProt P13596 20-858)
Experiment: cell-based or functional assay

Sequence of NCAM on rat hippocampal neurons (P13596 20-858): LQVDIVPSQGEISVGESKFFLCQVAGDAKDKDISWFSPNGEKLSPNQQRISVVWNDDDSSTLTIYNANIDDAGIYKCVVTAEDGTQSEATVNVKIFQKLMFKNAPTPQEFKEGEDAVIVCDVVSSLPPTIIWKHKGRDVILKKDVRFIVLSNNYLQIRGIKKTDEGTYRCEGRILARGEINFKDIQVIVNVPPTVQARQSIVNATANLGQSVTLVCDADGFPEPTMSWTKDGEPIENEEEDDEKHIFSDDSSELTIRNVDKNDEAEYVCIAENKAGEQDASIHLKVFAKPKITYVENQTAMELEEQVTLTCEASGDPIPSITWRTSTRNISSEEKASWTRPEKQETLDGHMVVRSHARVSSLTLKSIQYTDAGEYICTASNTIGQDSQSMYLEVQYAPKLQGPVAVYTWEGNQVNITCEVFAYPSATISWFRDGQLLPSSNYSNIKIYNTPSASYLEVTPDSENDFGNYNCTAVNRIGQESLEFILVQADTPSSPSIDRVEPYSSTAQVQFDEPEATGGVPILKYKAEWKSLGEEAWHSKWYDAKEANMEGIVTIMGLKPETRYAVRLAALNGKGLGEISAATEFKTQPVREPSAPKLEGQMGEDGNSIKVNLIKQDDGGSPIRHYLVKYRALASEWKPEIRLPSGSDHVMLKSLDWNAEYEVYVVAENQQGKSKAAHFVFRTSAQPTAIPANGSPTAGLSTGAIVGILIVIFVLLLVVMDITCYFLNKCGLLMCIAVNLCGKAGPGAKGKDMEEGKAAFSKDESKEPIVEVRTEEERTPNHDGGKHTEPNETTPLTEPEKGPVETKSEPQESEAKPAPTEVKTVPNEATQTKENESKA

Neuritogenic effect, 1 µM NPY fragment (% of control): 96.9 % of control
Neuritogenic effect, 3 µM NPY fragment (% of control): 103 % of control
Binder: LRHYINLITRQR [NPY24-35]

Neuritogenic effect, 1 µM NPY fragment (% of control): 95.9 % of control
Neuritogenic effect, 3 µM NPY fragment (% of control): 96.1 % of control
Binder: RHYINLITRQRY-NH2 [NPY25-36]

Neuritogenic effect, 1 µM NPY fragment (% of control): 174 % of control
Neuritogenic effect, 3 µM NPY fragment (% of control): 305 % of control
Binder: PAEDMARYYSALRHYINLITRQR [NPY13-35]

Neuritogenic effect, 1 µM NPY fragment (% of control): 96.2 % of control
Neuritogenic effect, 3 µM NPY fragment (% of control): 104 % of control
Binder: ALRHYINLITRQR [NPY23-35]

Neuritogenic effect, 1 µM NPY fragment (% of control): 87.7 % of control
Neuritogenic effect, 3 µM NPY fragment (% of control): 97.5 % of control
Binder: YSALRHYINLITRQ [NPY21-34]

Neuritogenic effect, 1 µM NPY fragment (% of control): 154 % of control
Neuritogenic effect, 3 µM NPY fragment (% of control): 233 % of control
Binder: YSALRHYINLITRQR [NPY21-35]

Neuritogenic effect, 1 µM NPY fragment (% of control): 95.4 % of control
Neuritogenic effect, 3 µM NPY fragment (% of control): 94.1 % of control
Binder: ASALRHYINLITRQR [NPY21-35 ala21]

Neuritogenic effect, 1 µM NPY fragment (% of control): 110 % of control
Neuritogenic effect, 3 µM NPY fragment (% of control): 285 % of control
Binder: RQRTILNIYHRLASYYRAMDEAPADEGPNDPKS [NPY3-35 reversed sequence]

Neuritogenic effect, 1 µM NPY fragment (% of control): 100 % of control
Neuritogenic effect, 3 µM NPY fragment (% of control): 91.8 % of control
Binder: ITRQRY-NH2 (also: Tyr36 (pos 6): amidated per mods, acetylation) [NPY31-36]

Neuritogenic effect, 1 µM NPY fragment (% of control): 108 % of control
Neuritogenic effect, 3 µM NPY fragment (% of control): 186 % of control
Binder: YSALRHYINLITRQRY-NH2 [NPY21-36]

Neuritogenic effect, 1 µM NPY fragment (% of control): 97.8 % of control
Neuritogenic effect, 3 µM NPY fragment (% of control): 99.1 % of control
Binder: YPSKPDNPGEDAPAEDMARY [NPY1-20]

Neuritogenic effect, 1 µM NPY fragment (% of control): 166 % of control
Neuritogenic effect, 3 µM NPY fragment (% of control): 180 % of control
B1: Neuropeptide Y (NPY; NPY1-36; full-length NPY) (peptide)
peptide: not shown
modifications: Tyr36 amidated

Neuritogenic effect, 1 µM NPY fragment (% of control): 107 % of control
Neuritogenic effect, 3 µM NPY fragment (% of control): 156 % of control
Binder: ALRHYINLITRQRY-NH2 [NPY23-36]

Neuritogenic effect, 1 µM NPY fragment (% of control): 89.1 % of control
Neuritogenic effect, 3 µM NPY fragment (% of control): 91.7 % of control
Binder: ALRHYINLITRQRA (ends and bridges not checked) [NPY23-36 ala36]

Neuritogenic effect, 1 µM NPY fragment (% of control): 107 % of control
Neuritogenic effect, 3 µM NPY fragment (% of control): 99.1 % of control
Binder: YINLITRQRY-NH2 [NPY27-36]

Neuritogenic effect, 1 µM NPY fragment (% of control): 104 % of control
Neuritogenic effect, 3 µM NPY fragment (% of control): 91.4 % of control
Binder: SALRHYINLITRQR [NPY22-35]
